# Laboratory results published in article PMC13104032, “Prion Protein-Derived Cell-Penetrating Peptide Inhibits Type II Diabetes-Associated Islet Amyloid Polypeptide Aggregation and Cytotoxicity” (Biochemistry, 2026).
# No end group written: not given here.
# T1: human islet amyloid polypeptide (IAPP), C-terminally amidated (human, C-terminal amide)
# T1 construct: islet amyloid polypeptide (amylin), human, the 37-residue peptide hormone, residues 1-37; numbers count on: the mature protein; also called amylin
# T1 chain: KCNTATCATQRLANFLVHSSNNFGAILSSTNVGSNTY
# B1: NCAM1-PrP (NCAM1(1-19)-PrP(23-28)) cell-penetrating peptide construct (peptide)
# chain: MLRTKDLIWTLFFLGTAVSKKRPKP-NH2
# notes: also called NPr; CPP
# Molecular target: T1, human islet amyloid polypeptide (IAPP), …
# Experiment: native MS
# Details: both partners purified
binder,measurement,value
B1,stoichiometry N,1
